In data set [1] the test system is HeLa Kyoto. Description: solubility in G1/S (NP-40 vs SDS abundance) (log2 ratio); higher = more soluble. The following applies: cell cycle stage: G1/S.
Data set [2] deals with HeLa Kyoto. Put plainly: thermal stability score vs G1/S (z-score of summed log2 fold changes over temperatures); higher = more thermally stable than in G1/S.
Data set [3] relates to HeLa Kyoto. Put plainly: melting temperature (median over replicates), in situ; higher = more thermally stable.
Data set [4] relates to HeLa Kyoto. Description: solubility change mitosis vs G1/S (difference of NP-40 vs SDS log2 ratios) (log2 ratio difference); higher = more soluble in mitosis.
Setting [5] is: cell cycle stage: early G1 (4.5 h after nocodazole release).
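Wherever melting temperature (median over replicates), in situ is given: HeLa Kyoto cells synchronized by double thymidine or nocodazole block, proteins quantified by TMT10plex mass spectrometry, three independent biological replicates.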
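Wherever solubility change mitosis vs G1/S (difference of NP-40 vs SDS log2 ratios) is given: synchronized HeLa Kyoto cells (double thymidine block for G1/S, nocodazole release for mitosis), protein amounts in NP-40 versus SDS lysates quantified by mass spectrometry, three biological replicates.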
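Wherever solubility in G1/S (NP-40 vs SDS abundance) is given: HeLa Kyoto cells arrested at G1/S by double thymidine block, proteins quantified by TMT10plex mass spectrometry in mild NP-40 versus SDS extracts, three biological replicates.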
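Wherever thermal stability score vs G1/S (z-score of summed log2 fold changes over temperatures) is given: synchronized HeLa Kyoto cells, proteins quantified by TMT10plex mass spectrometry, three biological replicates, mitosis taken 0.5 h after nocodazole release, G1/S directly after double thymidine block.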

Turning to “MSVACVLKRKAVLWQDSFSPHLKHHPQEPANPNMPVVLTSGTGSQAQPQPAANQALAAGTHSSPVPGSIGVAGRSQDDAMVDYFFQRQHGEQLGGGGSGGGGYNNSKHRWPTGDNIHAEHQVRSMDELNHDFQALALEGRAMGEQLLPGKKFWETDESSKDGPKGIFLGDQWRDSAWGTSDHSVSQPIMVQRRPGQSFHVNSEVNSVLSPRSESGGLGVSMVEYVLSSSPGDSCLRKGGFGPRDADSDENDKGEKKNKGTFDGDKLGDLKEEGDVMDKTNGLPVQNGIDADVKDFSRTPGNCQNSANEVDLLGPNQNGSEGLAQLTSTNGAKPVEDFSNMESQSVPLDPMEHVGMEPLQFDYSGTQVPVDSAAATVGLFDYNSQQQLFQRPNALAVQQLTAAQQQQYALAAAHQPHIGLAPAAFVPNPYIISAAPPGTDPYTAGLAAAATLGPAVVPHQYYGVTPWGVYPASLFQQQAAAAAAATNSANQQTTPQAQQGQQQVLRGGASQRPLTPNQNQQGQQTDPLVAAAAVNSALAFGQGLAAGMPGYPVLAPAAYYDQTGALVVNAGARNGLGAPVRLVAPAPVIISSSAAQAAVAAAAASANGAAGGLAGTTNGPFRPLGTQQPQPQPQQQPNNNLASSSFYGNNSLNSNSQSSSLFSQGSAQPANTSLGFGSSSSLGATLGSALGGFGTAVANSNTGSGSRRDSLTGSSDLYKRTSSSLTPIGHSFYNGLSFSSSPGPVGMPLPSQGPGHSQTPPPSLSSHGSSSSLNLGGLTNGSGRYISAAPGAEAKYRSASSASSLFSPSSTLFSSSRLRYGMSDVMPSGRSRLLEDFRNNRYPNLQLREIAGHIMEFSQDQHGSRFIQLKLERATPAERQLVFNEILQAAYQLMVDVFGNYVIQKFFEFGSLEQKLALAERIRGHVLSLALQMYGCRVIQKALEFIPSDQQNEMVRELDGHVLKCVKDQNGNHVVQKCIECVQPQSLQFIIDAFKGQVFALSTHPYGCRVIQRILEHCLPDQTLPILEELHQHTEQLVQDQYGNYVIQHVLEHGRPEDKSKIVAEIRGNVLVLSQHKFASNVVEKCVTHASRTERAVLIDEVCTMNDGPHSALYTMMKDQYANYVVQKMIDVAEPGQRKIVMHKIRPHIATLRKYTYGKHILAKLEKYYMKNGVDLGPICGPPNGII [PUM1]”, the “solubility in G1/S (log2)” value with HeLa Kyoto [1] stood at 0.186. The thermal stability score is -1.3 in the data set on HeLa Kyoto [2] (setting [5]) and -1.48 in the data set with HeLa Kyoto [2] (cell cycle stage: mitosis). The melting temperature was found to be 51.5 °C in the data set on HeLa Kyoto [3] (cell cycle stage: G1/S) and 51 °C with HeLa Kyoto [3] (cell cycle stage: mitosis). Moreover, the “solubility change mitosis (log2)” value in the data set with HeLa Kyoto [4] was -0.102.

“MSVEAYGPSSQTLTFLDTEEAELLGADTQGSEFEFTDFTLPSQTQTPPGGPGGPGGGGAGGPGGAGAGAAAGQLDAQVGPEGILQNGAVDDSVAKTSQLLAELNFEEDEEDTYYTKDLPIHACSYCGIHDPACVVYCNTSKKWFCNGRGNTSGSHIVNHLVRAKCKEVTLHKDGPLGETVLECYNCGCRNVFLLGFIPAKADSVVVLLCRQPCASQSSLKDINWDSSQWQPLIQDRCFLSWLVKIPSEQEQLRARQITAQQINKLEELWKENPSATLEDLEKPGVDEEPQHVLLRYEDAYQYQNIFGPLVKLEADYDKKLKESQTQDNITVRWDLGLNKKRIAYFTLPKTDSGNEDLVIIWLRDMRLMQGDEICLRYKGDLAPLWKGIGHVIKVPDNYGDEIAIELRSSVGAPVEVTHNFQVDFVWKSTSFDRMQSALKTFAVDETSVSGYIYHKLLGHEVEDVIIKCQLPKRFTAQGLPDLNHSQVYAVKTVLQRPLSLIQGPPGTGKTVTSATIVYHLARQGNGPVLVCAPSNIAVDQLTEKIHQTGLKVVRLCAKSREAIDSPVSFLALHNQIRNMDSMPELQKLQQLKDETGELSSADEKRYRALKRTAERELLMNADVICCTCVGAGDPRLAKMQFRSILIDESTQATEPECMVPVVLGAKQLILVGDHCQLGPVVMCKKAAKAGLSQSLFERLVVLGIRPIRLQVQYRMHPALSAFPSNIFYEGSLQNGVTAADRVKKGFDFQWPQPDKPMFFYVTQGQEEIASSGTSYLNRTEAANVEKITTKLLKAGAKPDQIGIITPYEGQRSYLVQYMQFSGSLHTKLYQEVEIASVDAFQGREKDFIILSCVRANEHQGIGFLNDPRRLNVALTRARYGVIIVGNPKALSKQPLWNHLLNYYKEQKVLVEGPLNNLRESLMQFSKPRKLVNTINPGARFMTTAMYDAREAIIPGSVYDRSSQGRPSSMYFQTHDQIGMISAGPSHVAAMNIPIPFNLVMPPMPPPGYFGQANGPAAGRGTPKGKTGRGGRQKNRFGLPGPSQTNLPNSQASQDVASQPFSQGALTQGYISMSQPSQMSQPGLSQPELSQDSYLGDEFKSQIDVALSQDSTYQGERAYQHGGVTGLSQY [UPF1]”: the “solubility in G1/S (log2)” value with HeLa Kyoto [1] was 0.0497. The thermal stability score with HeLa Kyoto [2] (setting [5]) was -3.14; with HeLa Kyoto [2] (cell cycle stage: mitosis) it was -8.04. Also, the melting temperature is 54.3 °C in the data set with HeLa Kyoto [3] (cell cycle stage: G1/S) and 52.3 °C in the data set on HeLa Kyoto [3] (cell cycle stage: mitosis). Also, the “solubility change mitosis (log2)” value with HeLa Kyoto [4] was -0.0177.

As for “MSVRVARVAWVRGLGASYRRGASSFPVPPPGAQGVAELLRDATGAEEEAPWAATERRMPGQCSVLLFPGQGSQVVGMGRGLLNYPRVRELYAAARRVLGYDLLELSLHGPQETLDRTVHCQPAIFVASLAAVEKLHHLQPSVIENCVAAAGFSVGEFAALVFAGAMEFAEGLYAVKIRAEAMQEASEAVPSGMLSVLGQPQSKFNFACLEAREHCKSLGIENPVCEVSNYLFPDCRVISGHQEALRFLQKNSSKFHFRRTRMLPVSGAFHTRLMEPAVEPLTQALKAVDIKKPLVSVYSNVHAHRYRHPGHIHKLLAQQLVSPVKWEQTMHAIYERKKGRGFPQTFEVGPGRQLGAILKSCNMQAWKSYSAVDVLQTLEHVDLDPQEPPR [MCAT]”, the “solubility in G1/S (log2)” value in the data set with HeLa Kyoto [1] is 0.3. Further, the thermal stability score with HeLa Kyoto [2] (setting [5]) is -1.29; in the data set with HeLa Kyoto [2] (cell cycle stage: mitosis) it was -2.74. Besides, the melting temperature in the data set with HeLa Kyoto [3] (cell cycle stage: G1/S) worked out at 53.7 °C; in the data set on HeLa Kyoto [3] (cell cycle stage: mitosis), 54.9 °C. The “solubility change mitosis (log2)” value in the data set on HeLa Kyoto [4] was -0.00154.

Consider “MSVRVARVAWVRGLGASYRRGASSFPVPPPGAQGVAELLRDATGAEEEAPWAATERRMPGQCSVLLFPGQGSQVVGMGRGLLNYPRVRELYAAARRVLGYDLLELSLHGPQETLDRTVHCQPAIFVASLAAVEKLHHLQPSVIENCVAAAGFSVGEFAALVFAGAMEFAEGLYAVKIRAEAMQEASEAVPSGMLSVLGQPQSKFNFACLEAREHCKSLGIENPVCEVSNYLFPDCRVISGHQEALRFLQKNSSKFHFRRTRMLPVSGAFHTRLMEPAVEPLTQALKAVDIKKPLVSVYSNVHAHRYRHPGHIHKLLAQQLVSPVKWEQTMHAIYERKKGRGFPQTFEVGPGRQLGAILKSCNMQAWKSYSAVDVLQTLEHVDLDPQEPPR [MT]”, for which the “solubility in G1/S (log2)” value with HeLa Kyoto [1] was -0.124. Also, the values for the thermal stability score in the data set on HeLa Kyoto [2] (setting [5]) and with HeLa Kyoto [2] (cell cycle stage: mitosis) were -1.31 and -2.45, respectively. Also, the melting temperature in the data set on HeLa Kyoto [3] (cell cycle stage: G1/S) amounted to 59 °C; in the data set with HeLa Kyoto [3] (cell cycle stage: mitosis), 56.6 °C. Moreover, the “solubility change mitosis (log2)” value with HeLa Kyoto [4] is -0.162.

Consider “MSVTYDDSVGVEVSSDSFWEVGNYKRTVKRIDDGHRLCSDLMNCLHERARIEKAYAQQLTEWARRWRQLVEKGPQYGTVEKAWMAFMSEAERVSELHLEVKASLMNDDFEKIKNWQKEAFHKQMMGGFKETKEAEDGFRKAQKPWAKKLKEVEAAKKAHHAACKEEKLAISREANSKADPSLNPEQLKKLQDKIEKCKQDVLKTKEKYEKSLKELDQGTPQYMENMEQVFEQCQQFEEKRLRFFREVLLEVQKHLDLSNVAGYKAIYHDLEQSIRAADAVEDLRWFRANHGPGMAMNWPQFEEWSADLNRTLSRREKKKATDGVTLTGINQTGDQSLPSKPSSTLNVPSNPAQSAQSQSSYNPFEDEDDTGSTVSEKDDTKAKNVSSYEKTQSYPTDWSDDESNNPFSSTDANGDSNPFDDDATSGTEVRVRALYDYEGQEHDELSFKAGDELTKMEDEDEQGWCKGRLDNGQVGLYPANYVEAIQ [PACSIN2]”, for which the “solubility in G1/S (log2)” value in the data set with HeLa Kyoto [1] is 0.218. Moreover, the thermal stability score in the data set on HeLa Kyoto [2] (setting [5]) was 1.11; with HeLa Kyoto [2] (cell cycle stage: mitosis), 1.7. For the same sequence, the figures for the melting temperature in the data set on HeLa Kyoto [3] (cell cycle stage: G1/S) and in the data set on HeLa Kyoto [3] (cell cycle stage: mitosis) were 49.6 °C and 49.7 °C, respectively. Further, the “solubility change mitosis (log2)” value in the data set on HeLa Kyoto [4] is -0.0385.

“MSWESGAGPGLGSQGMDLVWSAWYGKCVKGKGSLPLSAHGIVVAWLSRAEWDQVTVYLFCDDHKLQRYALNRITVWRSRSGNELPLAVASTADLIRCKLLDVTGGLGTDELRLLYGMALVRFVNLISERKTKFAKVPLKCLAQEVNIPDWIVDLRHELTHKKMPHINDCRRGCYFVLDWLQKTYWCRQLENSLRETWELEEFREGIEEEDQEEDKNIVVDDITEQKPEPQDDGKSTESDVKADGDSKGSEEVDSHCKKALSHKELYERARELLVSYEEEQFTVLEKFRYLPKAIKAWNNPSPRVECVLAELKGVTCENREAVLDAFLDDGFLVPTFEQLAALQIEYEDGQTEVQRGEGTDPKSHKNVDLNDVLVPKPFSQFWQPLLRGLHSQNFTQALLERMLSELPALGISGIRPTYILRWTVELIVANTKTGRNARRFSAGQWEARRGWRLFNCSASLDWPRMVESCLGSPCWASPQLLRIIFKAMGQGLPDEEQEKLLRICSIYTQSGENSLVQEGSEASPIGKSPYTLDSLYWSVKPASSSFGSEAKAQQQEEQGSVNDVKEEEKEEKEVLPDQVEEEEENDDQEEEEEDEDDEDDEEEDRMEVGPFSTGQESPTAENARLLAQKRGALQGSAWQVSSEDVRWDTFPLGRMPGQTEDPAELMLENYDTMYLLDQPVLEQRLEPSTCKTDTLGLSCGVGSGNCSNSSSSNFEGLLWSQGQLHGLKTGLQLF [LAS1L]”: the “solubility in G1/S (log2)” value in the data set on HeLa Kyoto [1] was -1.4. Further, the thermal stability score was 1.98 in the data set on HeLa Kyoto [2] (setting [5]) and 2.81 in the data set with HeLa Kyoto [2] (cell cycle stage: mitosis). For the same sequence, the melting temperature with HeLa Kyoto [3] (cell cycle stage: G1/S) is 49.7 °C; in the data set with HeLa Kyoto [3] (cell cycle stage: mitosis), 51 °C. Besides, the “solubility change mitosis (log2)” value in the data set on HeLa Kyoto [4] amounted to 0.658.

Values taken from the supplement of paper PMC5998384.
